{"source": "paper PMC3510253", "about": "(PLoS Pathogens, 2012)", "target": "T1, MBP-human TRIM25-Flag (human, UniProt Q14258 1-630)", "T1 construct": "human TRIM25", "T1 sequence (Q14258 whole entry)": "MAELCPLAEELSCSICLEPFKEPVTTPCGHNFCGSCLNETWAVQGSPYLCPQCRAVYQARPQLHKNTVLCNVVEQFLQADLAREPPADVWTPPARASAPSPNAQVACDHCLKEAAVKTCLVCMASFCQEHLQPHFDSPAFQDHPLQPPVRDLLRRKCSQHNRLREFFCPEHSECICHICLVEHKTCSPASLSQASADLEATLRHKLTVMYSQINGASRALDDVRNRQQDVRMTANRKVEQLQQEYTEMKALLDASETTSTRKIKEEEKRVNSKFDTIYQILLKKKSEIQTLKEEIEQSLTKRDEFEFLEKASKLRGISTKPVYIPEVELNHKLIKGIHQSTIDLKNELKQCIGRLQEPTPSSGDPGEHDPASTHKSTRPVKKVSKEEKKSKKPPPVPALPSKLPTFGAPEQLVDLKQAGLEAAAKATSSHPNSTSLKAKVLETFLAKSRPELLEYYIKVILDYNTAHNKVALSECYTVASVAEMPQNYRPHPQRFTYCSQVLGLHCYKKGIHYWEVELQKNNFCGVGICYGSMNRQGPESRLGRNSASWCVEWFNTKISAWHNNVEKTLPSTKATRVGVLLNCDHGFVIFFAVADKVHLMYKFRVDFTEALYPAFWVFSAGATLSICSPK", "assay": "pull-down", "details": "both partners purified"}
{"binder": "Glutathione-S-transferase (GST)-NS1 fusion protein (PR8) (natural protein, source: bacteria, purified) MDPNTVSSFQVDCFLWHVRKRVADQELGDAPFLDRLRRDQKSLRGRGSTLGLDIETATRAGKQIVERILKEESDEALKMTMASVPASRYLTDMTLEEMSRDWSMLIPKQKVAGPLCIRMDQAIMDKNIILKANFSVIFDRLETLILLRAFTEEGAIVGEISPLPSLPGHTAEDVKNAVGVLIGGLEWNDNTVRVSETLQRFAWRSSNENGRPPLTPKQKREMAGTIRSEV", "values": [{"measurement": "binding result", "value": "binds"}]}
